Results reported in publication PMC13137973, “Tumor Necrosis Factor Receptor 2 Inhibits HIV-1 Infection by Blocking the Binding of gp120 to CD4” (International Journal of Biological Sciences, 2026).

Target: T1, human immunodeficiency virus 1 (HIV-1) (group M, subtype B, Isolate MN) gp120 Protein (HIV-1 (group M, subtype B, isolate MN), UniProt P05877 30-513)
T1 construct: also called gp120 core; His-tagged gp120; source: bought: Sino Biological (Catalog No: 40405-V08H)
Experiment: ELISA; plates coated with human TNFR1 or TNFR2 (5 µg/mL, carbonate buffer pH 9.6, overnight 4 °C), blocked with 3% BSA; serial dilutions of gp120, 2 h room temperature; wash 20 mM Tris-HCl, 500 mM NaCl, 0.05% Tween-20, pH 7.5; bound gp120 detected with anti-His-HRP
Settings: both partners purified

B1: human TNFR2 / CD120b protein, extracellular domain (residues 1-257) (domain or fragment, UniProt P20333-1 23-257, looked up)
chain: LPAQVAFTPYAPEPGSTCRLREYYDQTAQMCCSKCSPGQHAKVFCTKTSDTVCDSCEDSTYTQLWNWVPECLSCGSRCSSDQVETQACTREQNRICTCRPGWYCALSKQEGCRLCAPLRKCRPGFGVARPGTETSDVVCKPCAPGTFSNTTSSTDICRPHQICNVVAIPGNASMDAVCTSTSPTRSMAPGAVHLPQPVSTRSQHTQPTPEPSTAPSTSFLLPMGPSPPAEGSTGD
notes: also called tumor necrosis factor receptor type II; immobilized TNFR2; source: bought: Sino Biological (Catalog No: 10417-H08H)
B1: binds.
